Holding throughout (assay): fluorescence polarisation; direct binding: 10 nM FAM-labeled peptide, receptor serially diluted; 25°C; 20 mM NaPO4, 50 mM NaCl, 1 mM EDTA, 0.001% Triton X, pH 7.8; single-site binding model
Common to all, as to details: both partners purified

In one assay the target is T1, Bcl-2 (human, UniProt P10415 1-239).
T1 construct: human Bcl-2; The c-Myc tag is told for the SPOT arrays; also called c-Myc-tagged receptor; prosurvival protein

The target of the next assay is T2, Bcl-w (human, UniProt Q92843 1-193).
T2 construct: human Bcl-w; The c-Myc tag is told for the SPOT arrays; also called c-Myc-tagged receptor; prosurvival protein
T2 sequence (looked up): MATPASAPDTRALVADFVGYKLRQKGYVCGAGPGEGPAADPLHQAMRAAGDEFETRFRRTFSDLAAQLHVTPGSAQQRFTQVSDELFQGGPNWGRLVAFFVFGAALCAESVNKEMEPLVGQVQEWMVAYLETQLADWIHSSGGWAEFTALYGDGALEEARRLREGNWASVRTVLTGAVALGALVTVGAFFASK

A further assay has as its target T3, Mcl-1 (human, UniProt Q07820 1-350).
T3 construct: human Mcl-1; The c-Myc tag is told for the SPOT arrays; also called c-Myc-tagged receptor; prosurvival protein

A further assay concerns the target T4, Bfl-1 (human, UniProt Q16548 1-175).
T4 construct: human Bfl-1; The c-Myc tag is told for the SPOT arrays; also called c-Myc-tagged receptor; prosurvival protein
T4 sequence (looked up): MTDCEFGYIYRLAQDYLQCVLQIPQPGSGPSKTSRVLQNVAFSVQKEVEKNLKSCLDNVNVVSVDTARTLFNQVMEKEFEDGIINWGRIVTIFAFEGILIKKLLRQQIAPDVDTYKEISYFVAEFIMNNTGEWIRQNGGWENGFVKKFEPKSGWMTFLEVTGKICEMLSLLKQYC

The Kd is the free concentration of one partner at which half of the binding sites on the other are occupied at equilibrium, for simple one-to-one binding.

FAM = fluorescein group Where only a bound is given, the exact number is not on record here.

T1 sequence (P10415 whole entry): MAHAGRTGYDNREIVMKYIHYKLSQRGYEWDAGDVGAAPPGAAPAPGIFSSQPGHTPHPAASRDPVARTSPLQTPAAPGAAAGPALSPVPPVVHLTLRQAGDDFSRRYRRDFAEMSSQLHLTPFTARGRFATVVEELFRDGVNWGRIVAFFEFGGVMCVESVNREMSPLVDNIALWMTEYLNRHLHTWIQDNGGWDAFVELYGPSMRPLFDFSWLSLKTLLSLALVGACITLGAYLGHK
T3 sequence (Q07820 whole entry): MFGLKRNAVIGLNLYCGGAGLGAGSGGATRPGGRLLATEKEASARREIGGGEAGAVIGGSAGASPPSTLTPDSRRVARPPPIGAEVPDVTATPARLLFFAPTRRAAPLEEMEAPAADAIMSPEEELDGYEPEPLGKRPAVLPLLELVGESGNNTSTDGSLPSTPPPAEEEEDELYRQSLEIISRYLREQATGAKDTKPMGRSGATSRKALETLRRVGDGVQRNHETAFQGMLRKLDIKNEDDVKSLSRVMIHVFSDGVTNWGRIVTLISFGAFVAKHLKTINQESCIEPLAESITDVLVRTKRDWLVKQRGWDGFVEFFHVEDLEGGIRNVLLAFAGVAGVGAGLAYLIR

As for {FAM}-PFKAWGKFGGAFCRYADEMKEIQERQ-NH2 [PURB BH3-like peptide], binding in the assay with Bcl-2 was characterised by a dissociation constant (Kd) of 40 nM. In other words, the double-digit nanomolar range.
Regarding {FAM}-IIQMIVELLKRVGDQWEEEQSLA-NH2 [c6orf222 BH3-like peptide], the Kd with Bcl-w, with Bcl-2, with Mcl-1 and in the assay with Bfl-1 was less than 30 nM in each case.

The values above are taken from paper PMC4072508 (PLoS Computational Biology, 2014).
